Experiment: soluble on expression in E. coli; label from the status in PepcDB or PDB records

Sequence	soluble on expression in E. coli
MTAWHRLPAAARALFGAKGGCTGSQRSYDDVLRVMYELTLRVVNPTYRNRTLANTSGKSAELVGLLVERLNMRRCLDTLRFVHVAGTKGKGTTASYTAALLEAYGLKVGLFTSPHVKDVRERIMVNNEVLPMDTFVHYFFQVVDCFVELAGADKEVTWDLPAPCSFFCLMFLVSLVAFAGESVDVAVVEVGIGGSRDPTNIIIPEASVITALGIDHTEILGDTVEEIALQKAGIMKPGVVCYAAPQGDHPSTRRVLKDYAEGVDSPLVFADDVAVPTDGWPCLSIGGEHAVENSRLALLAARSVMGIPLTQPLDDVERHVLQRTTVMGRSQVLPVGDGSKGTFYLDGAHTYESLRCATRWFVKESTKRTCDSKPRRVLLMYSSRQPERIVEAFRPFVDSFSKAVFVCALDPKGMREIWKNNSDAYTQDKATGLIRCWKTLCGAVPCFSRAAPFVSVEEVVEVVSAASSDDEDTSKPVQVFVTGSFFLVSDIVNLYDSQGS	not soluble
MKHIIILGDGMADWPVKSLGDKTLLQYAKTPYMDKLARMGRNGRLITVAEGFHPGSEVANMSVLGYNLPKVYEGRGPLEAASIGVDLKPGEMAMRCNLICVEGEILKNHSSGHISTEEADVLIQYLQEKLGNDRVRFHTGVQYRHLLVIKGGNKELDCTPPHDVPLKPFRPLMVKPLVPEAQETADLINDLILKSQELLKNHPLNLKRMSEGKDPANSIWPWSPGYRPQMPAFSETFPQVKKGAVISAVDLINGIGYYAGLRRIAVEGATGLYNTNYENKVAAALEALKTDDFVYLHIEASDEAGHEGDIDLKLLTIENLDKRAVGPIYEAVKDWDEPVAIAVLPDHPTPCELRTHTSDPIPFLIWYPGIEPDEVQTYDEISACDGSYGVLKEDEFIKEFMNQKNIQ	not soluble
DMKPNSTKIGVAEATDAALIQALQQRQVFTKTTQPTLSWEQYLELNLNSKSKRLALCNKLHLSYFNHKQLFRKLNLLQLTFDQVCQLLK	not soluble
SMATPNQTACNAESPVALEEAKTSGAPGSPQTPPERHDSGGSLPLTPRMESHSEDEDLAGAVGGLGWNSRSPRTQSPGGCSAEAVLARKKHRRRPSKRKRHWRPYLELSWAEKQQRDERQSQRASRVREEMFAKGQPVAPYNTTQFLMNDRDPEEPNLDVPHGISHPGSSGESEAGDSDGRGRAHGEFQRKDFSETYERFHTESLQGRSKQELVRDYLELEKRLSQAEEETRRLQQLQACTGQQSCRQVEELAAEVQRLRTENQRLRQENQMWNREGCRCDEEPGT	soluble
MNNFKLHTPTRILFGKGAIVDLRDQIPQDARVLITYGGGSVKKTGVLAQVQEALKGLDVREFGGIEPNPSYETLMKAVQLVRDENITFLLAVGGGSVLDGTKFIAAAAQYTDGVDPWHILETGGTEIRSAIPMGSVLTLPATGSESNAGAVISRKTTGDKQAFHSSFVQPVFAVLDPVYTYTLPPRQVANGVVDAFVHTVEQYVTYPVNGKIQDRFAEGILLTLIEEGPKALQEPENYDVRANVMWAATQALNGLIGAGVPQDWATHMLGHELTAMHGLDHAQTLAIVLPALWNEKRDVKRAKLLQYAERVWNITDGSDDERIDAAIAATRRFFEQMGVPTHLSDYGLDGSTIPALLAKLEAHGCINLGENQDITLDVSRRIYEAAR	not soluble
MGSDKIHHHHHHMTEQNQKQLGNTLWSIADQLRGAMDADDFRDYMLSFLFLRYLSDNYETAAKKELGRDYPDVGGDARKVPLALWYANNVDDIPAFEKQMRRKVHYVIQPAHLWNSIANLARTQNPDLLDTLQAGFKYIETESFESTFQGLFSEIDLSSPKLGKSYSDRNAKLCTIIQKIAEGLAAFSTNIDALGDAYEYLIGQFAAGSGKKAGEFYTPQQISDILSAIVTLDSQEPKTGTKKRLDSVLDFACGSGSLLLNVRKKVNQAGGSIGKIYGQEKNITTYNLARMNMLLHGVKDTEFEIFHGDTLLNEWDMLREQNPARKPSFDAVVANPPFSYRWEPTDALADDVRFKSHGLAPKSAADFAFLLHGFHYLKDEGVMAIILPHGVLFRGGAEERIRTKLLKDGHIDTVIGLPANLFYSTGIPVCILVLKKCKKPDDVLFINAAEHFVKGKRQNHLSDEHIAKIIETYQFRTEEPRYARRVDMAEIEKNDFNLNISRYISTAVDEEEIDLTATHANLVNIEKAIQQATAKHNEFLKELGMPLLP	not soluble
MGSDKIHHHHHHMRGYFRADWTERVELSEHDIGELRFSLKNRLGEALLLTSQEDMLRYCRDWHGDVTSSAVAVIRPRSTKEVSDTVIACAELGLAIIPQGGNTGLVLGGIPDAPKHQVVLSLERMNAIRTIDSDDFSAVVEAGCILSEFKDAVQDKGMFFPLSLGAQGSCRIGGNVSTNAGGINVLRYGMTRELVLGLEVVLPDGTIWNGLSTLRKDNRGIDLKQLFIGAEGTLGIITAVAVKLYPNPEHVETALLGLNSLDDAIKLYRRARRECCDLMSAFEFMPPVAFTLAIEAIPDLKMPIAGDYPAYVLMEISGSGLVDTADLMGRFLEGVMEDGLVLDGVIASSRAQAQSLWLFREGMNEGQALRGSHMRTDISVPLSKLAAFVAEAEAELAEKLPECLAVSYGHVGDGNVHLNVLPPNGATLEEREAFIYKSKTLVNEVLDRYVGSISAEHGIGRLKRSDFESRLSDVQRRMITGLKNAFDPDLRMNPGCQITLQPDS	not soluble
MSLREYRYSDAHLHYVDFFQESEGMPALIKAMDAAGVEQSMISGIPVAKKWHEDEPKRPRYYAGDDADAYWYSATDTYVAAALQQLPSDQRKRFHPFLSGFNPVDKNAVSHIERMLDLYPGLWQGIGEVFTRHDDLTALTSGDTPRANNEAMTRIYHLAAERDLPVLLHSNITSKRERNPLYLAEIEEPLRNHPHTRFIWAHAGSSMEIHRHQKQMDFLLPVLTRLLEDYPNLYVDLSWSVLQPYLLDEQGAPRKEWLALVEKYPERFMLGSDVVGRFGSLGEQMHGFKPFLDALPESVAHKVARENFLAVLPKARHEGHHHHHH	soluble
GPLGSALEIAEQLTLLDHLVFKSIPYEEFFGQGWMKAEKYERTPYIMKTTKHFNHVSNFIASEIIRNEDISARASAIEKWVAVADICRCLHNYNAVLEITSSINRSAIFRLKKTWLKVSKQTKSLLDKLQKLVSSDGRFKNLRESLRNCDPPCVPYLGMYLTDLVFIEEGTPNYTEDGLVNFSKMRMISHIIREIRQFQQTTYKIDPQPKVIQYLLDESFMLDEESLYESSLLIEPKLPT	soluble
MYYYVNEHEKALADFDKVIELNPKEDKTYYWKGLVYEYLKQYESSLVYLNKAIQLNDKNYKYYELRSLVYKQLREYDKAYSDVNVAIKLNQNNGILYSLRGLLNKYLNKYNDAIIDYNKSIELMPEFIAPYKSLLSIYLQTQNYEAGLEVANKAINIEQSWILYSTRGYLFLMLQSYNEAISDSNRAIKLNSGFADSYLTRGKAYLALKEYKKAIEDFDRAIELDSDNIDKVKQEAYEALAEMGEK	not soluble
MEIIFYHPTFNAAWWVNALEKALPHARVREWKVGDNNPADYALVWQPPVEMLAGRRLKAVFVLGAGVDAILSKLNAHPEMLDASIPLFRLEDTGMGLQMQEYAVSQVLHWFRRFDDYQALKNQALWKPLPEYTREEFSVGIMGAGVLGAKVAESLQAWGFPLRCWSRSRKSWPGVESYVGREELRAFLNQTRVLINLLPNTAQTVGIINSELLDQLPDGAYVLNLARGVHVQEADLLAALDSGKLKGAMLDVFSQEPLPQESPLWRHPRVAMTPHIAAVTRPAEAIDYISRTITQLEKGEPVTGQVDRARGY	not soluble
VMGNEYPDWIWGLSTTLRYKDWTLGISLDGRVGGMAYSRTEQTMWNTGVHPDSDNKWRYDEVVNGKKNYVGQGVKVVSGKVEYDTTGKIVSDTRVFAPNDTQVSYESYIKNYNPWSGGKVYQNVHDCTFLKLRELSLLYTMPKSVCEKIHMKGVTLGLIGQNLLIWMKEFKYADPDVDSDDLNSPSMRYVGFNVKFDL	not soluble
MGSDKIHHHHHHMLNETKELLKDYYGIDDDTFKLSQEIMEEIKDKFEEIKEIREYNQYKVLKAMQESKLSDMHFNWTTGYGYNDIGREKIEEIYSKVFNTEDALVRPIIVNGTHALTLCIQGIVRPGDEILSVTGRPYDTLEGVIGIREEKGSLKEYGVTYDDVDFLEDGNLDLEGIKSKINDRTKLVMIQRSKGYSWRKSLSISDIKEAIEVIKSVKPEAIVMVDNCYGEFLDTKEPTDVGADVMAGSLIKNPGGGLALTGGYIAGRKDLIELISYRMTSPGIGKECGLTFGTTRNVLQGFFLAPYIVSQAVMGAIFCSRAFEKLGYDVLPKYDDLRSDIIQCIRLNNADEVISFCEGIQEAAPVDSYVKPVPWDMPGYESEVIMAAGAFIQGSSIELSADAPIRPPYNVYFQGGLTFDHSKMGTLKAIEFIKKLKK	not soluble

Reference: the DeepSol protein solubility set
